Target: amyloid β-peptide (human, 1-40) (human)
Test: SPR; Biacore 3000; Aβ immobilised by amine coupling on a CM5 chip; analytes injected in 10 mM HEPES-NaOH pH 7.4, 0.15 M NaCl, 0.0005% Tween 20; 25°C; hMK 0.62-20 μg/ml for the constant, all other analytes 5 μg/ml

- Kd: 160 nM
B1: human midkine (natural protein)
chain: VAKKKDKVKKGGPGSECAEWAWGPCTPSSKDCGVGFREGTCGAQTQRIRCRVPCNWKKEFGADCKYKFENWGACDGGTGTKVRQGTLKKARYNAQCQETIRVTKPCTPKTKAKAKAKKGKGKD
